Test results: article PMC5643561, “Zdhhc13-dependent Drp1 S-palmitoylation impacts brain bioenergetics, anxiety, coordination and motor skills” (Scientific Reports, 2017)

Molecular target: T1, Drp1, recombinant, purified (Novus Biologicals # H00010059-P01) (UniProt O00429 1-736)
T1 construct: Drp1 (dynamin-related protein 1); The methods call Drp1 GST-tagged and immobilised; The results describe it as untagged analyte at 56, 167 and 500 nM; also called GST-tagged recombinant, purified Drp1; recombinant Drp1; source: bought: Novus Biologicals, # H00010059-P01
Test: BLI; Octet RED384 (ForteBio), anti-GST biosensor. Methods: GST-Drp1 immobilised, WT or L203X Zdhhc13 in solution. Results: GST-Zdhhc13 captured, Drp1 at 56, 167 and 500 nM.
Details: both partners purified

T1 sequence (O00429 whole entry): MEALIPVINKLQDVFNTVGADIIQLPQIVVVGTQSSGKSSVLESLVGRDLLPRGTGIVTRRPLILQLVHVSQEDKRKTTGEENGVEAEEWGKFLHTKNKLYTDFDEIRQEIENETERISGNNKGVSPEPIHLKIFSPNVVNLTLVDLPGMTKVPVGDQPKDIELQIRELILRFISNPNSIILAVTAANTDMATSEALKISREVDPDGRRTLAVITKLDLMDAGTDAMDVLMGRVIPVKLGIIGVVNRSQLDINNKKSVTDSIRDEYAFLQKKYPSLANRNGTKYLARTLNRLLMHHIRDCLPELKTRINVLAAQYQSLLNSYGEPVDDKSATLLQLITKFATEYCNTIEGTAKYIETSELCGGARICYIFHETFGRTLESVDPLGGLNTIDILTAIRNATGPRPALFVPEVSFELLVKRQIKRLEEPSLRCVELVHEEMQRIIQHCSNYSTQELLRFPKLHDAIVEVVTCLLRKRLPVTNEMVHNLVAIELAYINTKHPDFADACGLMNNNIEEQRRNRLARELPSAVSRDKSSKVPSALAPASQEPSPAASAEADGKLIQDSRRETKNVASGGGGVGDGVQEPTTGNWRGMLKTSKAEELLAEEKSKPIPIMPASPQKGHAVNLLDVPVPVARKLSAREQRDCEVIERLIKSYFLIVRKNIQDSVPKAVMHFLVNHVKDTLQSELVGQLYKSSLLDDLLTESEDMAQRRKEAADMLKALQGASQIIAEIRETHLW

Kd [nM] | koff [s⁻¹] | kon [M⁻¹ s⁻¹] | Binder
560 | 0.046 | 82000 | Zdhhc13, wild type, recombinant (mouse sequence) (enzyme, UniProt Q9CWU2 1-622, looked up, Zdhhc13, mouse, UniProtKB Q9CWU2; also called WT Zdhhc13; full length GST-tagged Zdhhc13; source: purified recombinant (culture supernatant)) MEGPGLGSQCRNHSHGSHVPGFGRHGICVHENKELAKAKEILPLIEDSSNCDIVKATQYGIFERCKELVEAGYDVRQPDRENVSLLHWAAINNRLELVKFYISKGAVIDQLGGDLNSTPLHWAIRQGHLPMVILLLQHGADPTLIDGEGFSSIHLAVLFQHMPIIAYLISKGQSVNMTDVNGQTPLMLSAYKVIGPEPTGFLLKFNPSLSVVDKTHQNTPLHWAVAAGNVSAVDKLLEAGSSLDIRNAKGETPLDMALQSKNQLISHMLRTEAKMRANKQFRLWRWLHKCELFLLLILSMITLWAVGYILDFNSDSWLLKGCLLVALFFLTSLFPRFLVGYKNLVYLPTVFLLSSIFWIFMTWFILFFPDTAGSPLYFAFIFSIMAFLYFFYKTWATDPGFTKASEEERKVNIVTLAETGSLDFRTFCTSCLIRKPLRSLHCHVCNSCVARFDQHCFWTGRCIGFGNHHHYIFFLLSLSMVCDWIIYGSFVYWSNHCATTFKEDGLWTYLNQIVACSPWVLYIFMLAAFHFSWSTFLLINQLFQIAFLGLTSHERISLLKQSRHMKQTLSLRKTPYNLGFTQNLADFFQCGCFGLVKPCIIDWTSQYTMVFHPAKEKVLRSV
88 | 0.0018 | 21000 | Zdhhc13 L203X, truncated form, recombinant (mouse sequence) (domain or fragment, UniProt Q9CWU2 1-202, looked up, Zdhhc13, mouse, UniProtKB Q9CWU2; naturally occurring nonsense mutation L203X (premature stop codon at codon 203), so the chain ends at residue 202; also called L203X Zdhhc13; truncated Zdhhc13; source: purified recombinant (culture eluate)) MEGPGLGSQCRNHSHGSHVPGFGRHGICVHENKELAKAKEILPLIEDSSNCDIVKATQYGIFERCKELVEAGYDVRQPDRENVSLLHWAAINNRLELVKFYISKGAVIDQLGGDLNSTPLHWAIRQGHLPMVILLLQHGADPTLIDGEGFSSIHLAVLFQHMPIIAYLISKGQSVNMTDVNGQTPLMLSAYKVIGPEPTGFL
